Results: patent publication US20190367619A1 (ARGENX, published 2019)
Residue numbers refer to the chain shown, from its start.

Tests used:
[1] = target: T1, TEV-cleaved wild-type recombinant human galectin-10 (soluble, in Fab complexes, or as recombinant galectin-10 … (human, UniProt Q05315 1-142)); test: cell-based or functional assay
T1 sequence: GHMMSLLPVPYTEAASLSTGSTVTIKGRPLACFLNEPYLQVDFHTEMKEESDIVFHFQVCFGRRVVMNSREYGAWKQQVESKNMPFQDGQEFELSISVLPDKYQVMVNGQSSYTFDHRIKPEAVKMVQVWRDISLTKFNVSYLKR

[2] = target: T2, human galectin-10-His (recombinant human galectin-10 with TEV-cleavable N-terminal His-tag) (human); test: ELISA, mouse IgG1 on coated galectin-10-His (0.2 ug/mL)
T2 construct: SEC-MALLS: dimer in solution; also called Gal10-His; humanGal10-His
T2 chain: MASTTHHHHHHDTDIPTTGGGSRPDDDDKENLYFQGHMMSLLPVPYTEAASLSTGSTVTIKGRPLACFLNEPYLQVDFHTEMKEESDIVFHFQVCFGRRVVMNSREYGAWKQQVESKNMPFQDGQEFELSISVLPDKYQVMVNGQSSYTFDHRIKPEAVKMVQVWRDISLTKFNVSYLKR
Method: In a similar setup to that used during the characterization of the scFv-human Fc molecules, the relative binding affinities of the 10 mouse IgG1 antibodies were analyzed by ELISA. A Maxisorp plate was coated overnight with 0.2 μg/mL of galectin-10-His. Then a serial dilution of each clone (from 100 nM, dilution 1/4, 12 points of dilutions) was incubated on coated galectin-10. After several washing steps, detection of the bound mouse IgG1 was carried out with an anti-mouse Fc-HRP antibody. Absorbance was measured at 450 nm (reference at 620 nm) with Tecan instrument. A mouse IgG1 isotype control was used as negative control. A polyclonal anti-galectin-10 antibody was used as positive control for the coating of galectin-10. The raw data (OD values) were plotted on GraphPad Prism 7.01. The EC50 values for each antibody, calculated with a non-linear regression (log(agonist) vs. response Variable slope (four parameters)), are reported in Table 7 below.

[3] = target: T2, human galectin-10-His (recombinant …); test: BLI tandem on galectin-10-His; competitor: saturating 1C09 mIgG1 (10 ug/mL)
Method: (§1) In order to identify the galectin-10 binding sites of the different clones, an epitope mapping method (TANDEM), using the BLI technology, was established. Briefly, the galectin-10-His was captured on anti-HIS 1K sensor tips, before incubation with an excess of one antibody (called the “saturating” antibody) then directly transferred to a solution containing the “competitor” antibody at a suboptimal concentration. If the “saturating” and the competitor antibody bind to the same binding sites, no binding of “competitor” will be detected (expressed in nm shift).

[4] = target: T2, human galectin-10-His (recombinant …); test: BLI tandem on galectin-10-His; competitor: saturating 1D11 mIgG1 (10 ug/mL)
Method: as §1

[5] = target: T2, human galectin-10-His (recombinant …); test: BLI tandem on galectin-10-His; competitor: saturating 2C07 mIgG1 (10 ug/mL)
Method: as §1

[6] = target: T2, human galectin-10-His (recombinant …); test: BLI tandem on galectin-10-His; competitor: saturating 2F09 mIgG1 (10 ug/mL)
Method: as §1

[7] = target: T2, human galectin-10-His (recombinant …); test: BLI tandem on galectin-10-His; competitor: saturating 4E08 mIgG1 (10 ug/mL)
Method: as §1

[8] = target: T2, human galectin-10-His (recombinant …); test: BLI tandem on galectin-10-His; competitor: saturating 6A05 mIgG1 (10 ug/mL)
Method: as §1

[9] = target: T2, human galectin-10-His (recombinant …); test: BLI tandem on galectin-10-His; competitor: saturating 6A08 mIgG1 (10 ug/mL)
Method: as §1

[10] = target: T2, human galectin-10-His (recombinant …); test: BLI tandem on galectin-10-His; competitor: saturating 6B06 mIgG1 (10 ug/mL)
Method: as §1

[11] = target: T2, human galectin-10-His (recombinant …); test: BLI tandem on galectin-10-His; competitor: saturating 6E10 mIgG1 (10 ug/mL)
Method: as §1

[12] = target: T2, human galectin-10-His (recombinant …); test: BLI tandem on galectin-10-His; competitor: saturating 6F06 mIgG1 (10 ug/mL)
Method: as §1

[13] = target: T2, human galectin-10-His (recombinant …); test: BLI tandem on galectin-10-His; isotype control as saturating antibody (10 ug/mL)
Method: as §1

[14] = target: T2, human galectin-10-His (recombinant …); test: SPR Biacore T3000, mouse IgG1 captured by anti-mouse Fc, galectin-10-His as analyte
Method: The binding capacity of the mouse IgG1 antibodies to galectin-10 was analyzed on Biacore T3000. For this purpose, a capture approach was set up. A CM5 Chip was coated with polyclonal anti-mouse Fc at 8000 RU, then a fixed concentration of the mouse IgG1 antibody panel (1.5 μg/mL), diluted in HBS-EP pH7.4, was captured to reach a binding signal around 150 RU. Finally, a serial dilution of galectin-10-His (serial dilution, 1 over 2 from 5 μg/mL) diluted in HBS-EP pH7.4 was injected. Raw data were analyzed via BIA evaluation software with a blank subtraction (4-3). The kd/KD and Rmax of each mAb to galectin-10-His was determined using the Fit Kinetics simultaneous ka/kd/Binding with mass transfer/Local Rmax on BIA evaluation software.

[15] = target: T3, recombinant human galectin-10, TEV-cleaved (human, UniProt Q05315 1-142); test: cell-based or functional assay
T3 sequence: T1 sequence

[16] = target: T3, recombinant human galectin-10, …; test: cell-based or functional assay; remark: listed apart in the source
human galectin-10-His [17] = target: T4, human galectin-10-His (human); test: ELISA, coated antigen 0.5 ug/mL
T4 construct: The last M of the tag may be Met1 of galectin-10; also called humanGal10-His; hGal10
T4 chain: T2 chain
Method: (§2) In a similar setup to that used during the characterization of the scFv-human Fc molecules, the relative binding properties of the 7 mouse IgG1 antibodies were analyzed by ELISA. A Maxisorp plate was coated overnight with 0.5 μg/mL of human or cynomolgus WGS or YRT isoform of galectin-10-His. Then a serial dilution of each clone (from 100 nM, dilution 1/4, 12 points of dilutions) was incubated on coated galectin-10. After several washing steps, detection of the bound mouse IgG1 was carried out with an anti-mouse Fc-HRP antibody (DAMPO, Jackson ImmunoResearch, Catalog 715-035-150). Absorbance was measured at 450 nm (reference at 620 nm) with Tecan instrument. The raw data (OD values) were plotted on GraphPad Prism 7.01. The EC50 values for each antibody, calculated with a non-linear regression (log(agonist) vs. response Variable slope (four parameters)), are shown in the table below. Antibody 1D11 from the previous panel was included for comparison.

[18] = target: T5, cynomolgus galectin-10-His, WGS isoform (cynomolgus); test: ELISA, coated antigen 0.5 ug/mL
T5 construct: also called cynoGal10-WGS; not shown: His tag
T5 chain: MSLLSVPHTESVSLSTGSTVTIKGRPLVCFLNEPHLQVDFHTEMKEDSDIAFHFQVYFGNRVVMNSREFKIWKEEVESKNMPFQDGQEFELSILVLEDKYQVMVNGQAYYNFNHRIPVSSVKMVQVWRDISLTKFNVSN
Method: as §2

human galectin-10-His [19] = target: T4, human galectin-10-His; test: SPR Biacore T3000, mouse IgG1 captured
Method: The binding capacity of the mouse IgG1 antibody panel to galectin-10 was analysed on Biacore T3000. For this purpose, a capture approach was used, where a fixed concentration (1.5 μg/mL) of the mouse IgG1 clone was captured by polyclonal anti-mouse Fc antibodies immobilized on CM5 Chip to reach a binding signal around 150 RU. Then a serial dilution of human and cynomolgus WGS isoform of galectin-10-His (serial dilution, 1 over 2 from 5 μg/mL) diluted in HBS-EP pH7.4 was injected. Raw data were analysed via BIA evaluation software with a blank subtraction. The kd/KD and Rmax of each mAbs to galectin-10-His was determined using the Fit Kinetics simultaneous ka/kd/Binding with mass transfer/Local Rmax on BIA evaluation software.

human galectin-10-His [20] = target: T4, human galectin-10-His; test: ELISA, galectin-10-His coated at 1 ug/mL, Fab
Method: The binding capacity of the lead anti-galectin-10 Fabs was tested by binding ELISA. Briefly, a Maxisorp plate was coated overnight with 1 μg/mL of human galectin-10-His. Then a serial dilution of each clone (from 4 μM, dilution 1/4, 12 points of dilutions) was incubated on coated galectin-10. After several washing steps, detection of the bound Fab was carried out with an anti-human IgG Fab specific-peroxidase. Absorbance was measured at 450 nm (reference at 620 nm) with Tecan instrument.

B1: 2F09 mouse IgG1 (antibody, V domains shown)
VH: QVQVQESGPGLVKPSQTLSLTCTVSGGSITTNYFYWSWIRQSPGKGLEWIGAIAYSGRTYYSPSLKSRTSISRDTSNNQFTLQLSSVTPEDTAVYYCARGPKGLASYYDYWGQGTQVTVSS
VL: SSALTQPSAVSVSLGQTARITCQGGNFGYYYVSWYQQKPGQAPVLVIYRDSGRPSGIPERFSGSSSGDTATLTISGAQAEDEADYYCQSGSSSDNTVFGGGTHLTVL
notes: VH on mouse IgG1 heavy chain constant domains (CH1-CH2-CH3), VL on mouse lambda light chain constant domain; also called 2F09 mIgG1
100% Solubilization of CLC (Conc uM) [1]: 10.7 µM | Bmax [2]: 3.29 OD | EC50 [2]: 0.05 nM | binding signal (nm) [3]: 0.04 nm | binding signal (nm) [4]: 0.12 nm | binding signal (nm) [5]: 0.05 nm | binding signal (nm) [6]: 0.03 nm | binding signal (nm) [7]: 0.1 nm | binding signal (nm) [8]: 0.12 nm | binding signal (nm) [9]: 0.07 nm | binding signal (nm) [10]: 0.03 nm | binding signal (nm) [11]: 0.03 nm | binding signal (nm) [12]: 0.06 nm | binding signal (nm) [13]: 1.14 nm | Kd [14]: 0.3 nM | koff [14]: 0.00034 s⁻¹

B2: 1D11 mouse IgG1 (antibody, V domains shown)
VH: QVQLVESGGGLVQPGGSLRLSCAASGFTFDDYAMSWVRQAPGKGLEWVSGISWNGGSTYYAESMKGRFTISRDNAKNTLYLQMNSLKSEDTAVYYCAKDRNLGYRLGYPYDYWGQGTQVTVSS
VL: QSVLTQPPSVSGSPGETVTISCAGTSSDVGYGNYVSWYQQLPGMAPRLLIYEVNKRASGITDRFSGSKSGNTASLTISGLQSEDEGDYYCASYRSSNNAVFGGGTHLTVL
notes: Llama VH and VL on mouse IgG1 heavy chain constant domains (CH1-CH2-CH3) and mouse lambda light chain constant domain; also called 1D011; 1D11 mIgG1
50% dissolution (min) of CLCs, antibody 50 uM [15]: 30.1 min | 90% dissolution (min) of CLCs, antibody 50 uM [15]: 56.7 min | 50% crystal dissolution (min), 50 uM [16]: 100 min | 90% crystal dissolution (min), 50 uM [16]: > 120 min | EC50 (human galectin-10-His [17]): 0.1 nM | OD values (human galectin-10-His [17]): 2 OD | OD values [18]: 0.05 OD | binding result [18]: no binding (tested: serial dilution from 100 nM) | Kd (human galectin-10-His [19]): 0.7 nM | koff (human galectin-10-His [19]): 0.00931 s⁻¹ | kon (human galectin-10-His [19]): 1.27e+07 M⁻¹ s⁻¹

B3: 1D11 Fab (Fab, V domains shown)
VH: B2 VH
VL: B2 VL
notes: Fab with human CH1 (including part of the hinge region) and human lambda constant domain; also called Fab-1D11; 1D11 hFab
50% crystal dissolution (min), 50 uM [16]: 33.4 min | 90% crystal dissolution (min), 50 uM [16]: 97.8 min | Bmax (human galectin-10-His [20]): 1.59 OD | EC50 (human galectin-10-His [20]): 1.4 nM

B4: 11F02 Fab (Fab, V domains shown)
VH: ELQVVESGGGLVQPGGSLRLSCAASGFTFSTNYMNWVRQAPGKGLEWVSGITSHGARTYYADSVKGRFTISRDNSKNTLYLQMNSLKPEDTALYYCARTDHASLDAWGQGTLVTVSS
VL: QTVVTQEPSLSVSPGGTVTLTCGLSSGSVTSSNYPGWYQQKPGQAPRTLIYNTNSRYSGVPNRFSGSISGNKAALTITGAQPEDEADYYCALYMGSSSYNTVFGGGTHLTVL
notes: Fab with human CH1 (including part of the hinge region) and human lambda constant domain; also called 11F02 hFab
50% crystal dissolution (min), 50 uM [16]: 77.9 min | 90% crystal dissolution (min), 50 uM [16]: > 120 min | Bmax (human galectin-10-His [20]): 0.46 OD | EC50 (human galectin-10-His [20]): 81.4 nM

B5: 11F12 Fab (Fab, V domains shown)
VH: B4 VH with E1Q, L2V, V4L, V5Q, H54G, A56G, S75A, S103W
VL: HSAVTQPPSVSGTLGKTVTISCAGTSSDVGYGNYVSWYQHLPGTAPKLLIYAVSTRASGVPDRFSGSKSGNTASLTISGLQSEDEGDYYCASYSVRNNVVFGGGTRLTVL
notes: Fab with human CH1 (including part of the hinge region) and human lambda constant domain; also called 11F12 hFab
50% crystal dissolution (min), 50 uM [16]: 62 min | 90% crystal dissolution (min), 50 uM [16]: > 120 min | Bmax (human galectin-10-His [20]): 1.38 OD | EC50 (human galectin-10-His [20]): 22.4 nM
